In PMC12476836:
Like-named read-outs stand apart in the source and are kept apart here.

Columns and labels:
[1] = biological target: unnamed; test: affinities annotated in the ELM database (various methods, AffinityMin); details: cited from earlier work
[2] = biological target: unnamed; details: cited from earlier work
Target sequence in this assay (P12004 127-254): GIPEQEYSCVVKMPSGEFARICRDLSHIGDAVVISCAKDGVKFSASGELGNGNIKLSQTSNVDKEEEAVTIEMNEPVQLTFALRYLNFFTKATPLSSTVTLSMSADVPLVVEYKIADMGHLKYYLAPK

[3] = biological target: unnamed; details: cited from earlier work; remark: listed apart in the source
[4] = biological target: FLAG-GFP-SLiM with the predicted DDVF-like motif of TRM9B; test: BioID2 proximity labeling (streptavidin immunoblot quantification); details: n = 3; FLAG-GFP-SLiM +DEEVFV (TRM9B); parent: est. 1.2; read off a plot
[5] = biological target: FLAG-GFP-SLiM with the predicted DDVF-like motif of PTPN3; test: as above; details: n = 3; FLAG-GFP-SLiM +TEDVFY (PTPN3); parent: est. 1.6; read off a plot
[6] = biological target: FLAG-GFP-SLiM with the predicted DDVF-like motif of TMEM139; test: as above; details: n = 3; FLAG-GFP-SLiM +DDSVFY (TMEM139); parent: est. 2.4; read off a plot
[7] = biological target: FLAG-GFP-SLiM DDSVFA (FGFR3); test: as above; details: n = 3, FLAG-GFP-SLiM +DDSVFA (FGFR3)
[8] = biological target: FLAG-GFP-SLiM with the predicted DDVF motif of GTSE1; test: as above; details: n = 3, FLAG-GFP-SLiM +DDEVFF (GTSE1)
[9] = biological target: FLAG-GFP-SLiM DDSVFS (FGFR2); test: as above; details: n = 3, FLAG-GFP-SLiM +DDSVFS (FGFR2)
[10] = biological target: FLAG-GFP-SLiM EDSVFS (FGFR1); test: as above; details: n = 3, FLAG-GFP-SLiM +EDSVFS (FGFR1)

P10451, sequence (P10451 whole entry, looked up): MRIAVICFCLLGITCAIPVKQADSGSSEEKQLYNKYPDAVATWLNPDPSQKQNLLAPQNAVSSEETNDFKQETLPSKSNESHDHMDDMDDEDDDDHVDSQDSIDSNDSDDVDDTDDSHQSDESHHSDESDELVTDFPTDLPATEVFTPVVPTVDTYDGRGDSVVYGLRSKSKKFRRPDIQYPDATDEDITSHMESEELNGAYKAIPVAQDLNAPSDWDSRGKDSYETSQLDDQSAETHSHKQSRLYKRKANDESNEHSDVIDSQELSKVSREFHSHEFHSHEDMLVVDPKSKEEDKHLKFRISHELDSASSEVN
Q15004, sequence (Q15004 whole entry, looked up): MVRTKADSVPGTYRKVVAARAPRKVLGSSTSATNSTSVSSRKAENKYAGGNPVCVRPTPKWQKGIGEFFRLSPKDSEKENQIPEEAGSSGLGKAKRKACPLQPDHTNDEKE
Q99816, sequence (Q99816 whole entry, looked up): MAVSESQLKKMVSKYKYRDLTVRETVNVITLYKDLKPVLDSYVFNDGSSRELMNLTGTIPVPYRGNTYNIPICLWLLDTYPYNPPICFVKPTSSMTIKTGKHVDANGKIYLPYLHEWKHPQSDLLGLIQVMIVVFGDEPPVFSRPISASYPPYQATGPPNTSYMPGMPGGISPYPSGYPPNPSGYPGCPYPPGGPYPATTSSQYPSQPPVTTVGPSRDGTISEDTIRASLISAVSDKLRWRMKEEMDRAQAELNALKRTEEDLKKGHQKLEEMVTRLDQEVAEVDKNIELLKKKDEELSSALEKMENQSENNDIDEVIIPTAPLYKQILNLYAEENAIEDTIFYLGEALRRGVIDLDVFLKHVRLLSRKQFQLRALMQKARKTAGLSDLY
O75367, sequence (O75367 whole entry, looked up): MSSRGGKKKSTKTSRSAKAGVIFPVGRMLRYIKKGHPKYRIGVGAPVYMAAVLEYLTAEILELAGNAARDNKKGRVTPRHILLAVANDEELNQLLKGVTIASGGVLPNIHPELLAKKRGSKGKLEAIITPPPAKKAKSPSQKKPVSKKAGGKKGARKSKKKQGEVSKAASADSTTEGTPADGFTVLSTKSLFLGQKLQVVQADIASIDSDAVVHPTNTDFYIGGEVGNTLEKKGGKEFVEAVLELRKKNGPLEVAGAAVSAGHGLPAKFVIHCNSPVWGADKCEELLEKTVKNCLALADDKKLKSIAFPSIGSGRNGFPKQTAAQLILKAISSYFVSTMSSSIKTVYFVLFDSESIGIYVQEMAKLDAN
Q8WUK0, sequence (Q8WUK0 whole entry, looked up): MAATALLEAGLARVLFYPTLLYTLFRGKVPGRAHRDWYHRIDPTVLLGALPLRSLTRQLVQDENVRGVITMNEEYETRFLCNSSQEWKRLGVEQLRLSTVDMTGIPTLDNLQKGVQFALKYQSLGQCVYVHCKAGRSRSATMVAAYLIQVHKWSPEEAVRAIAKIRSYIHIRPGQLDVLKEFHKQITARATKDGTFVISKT
Q01094, sequence (Q01094 whole entry, looked up): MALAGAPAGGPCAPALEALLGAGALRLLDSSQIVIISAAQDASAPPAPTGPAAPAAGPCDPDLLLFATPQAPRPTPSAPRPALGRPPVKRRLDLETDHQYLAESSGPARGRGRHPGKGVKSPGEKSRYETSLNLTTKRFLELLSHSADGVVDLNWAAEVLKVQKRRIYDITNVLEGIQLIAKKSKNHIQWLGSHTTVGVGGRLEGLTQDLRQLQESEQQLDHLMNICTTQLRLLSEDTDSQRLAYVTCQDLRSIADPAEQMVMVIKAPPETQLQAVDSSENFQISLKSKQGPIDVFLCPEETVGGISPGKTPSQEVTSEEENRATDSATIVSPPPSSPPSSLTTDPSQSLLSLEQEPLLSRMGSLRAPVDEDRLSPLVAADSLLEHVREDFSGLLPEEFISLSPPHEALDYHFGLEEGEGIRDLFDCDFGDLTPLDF
P30279, sequence (P30279 whole entry, looked up): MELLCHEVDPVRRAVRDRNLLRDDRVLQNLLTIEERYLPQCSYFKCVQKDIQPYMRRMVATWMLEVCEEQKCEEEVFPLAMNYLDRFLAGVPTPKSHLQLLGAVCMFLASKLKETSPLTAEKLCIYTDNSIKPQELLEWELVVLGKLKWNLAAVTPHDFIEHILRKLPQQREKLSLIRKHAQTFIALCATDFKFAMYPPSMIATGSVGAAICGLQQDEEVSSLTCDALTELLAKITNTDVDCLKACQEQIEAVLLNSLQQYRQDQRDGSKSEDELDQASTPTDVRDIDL
P61081, sequence (P61081 whole entry, looked up): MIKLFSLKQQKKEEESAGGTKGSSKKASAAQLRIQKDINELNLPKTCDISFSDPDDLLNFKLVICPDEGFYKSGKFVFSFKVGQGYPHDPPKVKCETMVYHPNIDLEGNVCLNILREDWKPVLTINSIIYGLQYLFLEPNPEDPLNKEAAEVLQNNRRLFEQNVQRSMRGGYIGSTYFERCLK
Q6NS38, sequence (Q6NS38 whole entry, looked up): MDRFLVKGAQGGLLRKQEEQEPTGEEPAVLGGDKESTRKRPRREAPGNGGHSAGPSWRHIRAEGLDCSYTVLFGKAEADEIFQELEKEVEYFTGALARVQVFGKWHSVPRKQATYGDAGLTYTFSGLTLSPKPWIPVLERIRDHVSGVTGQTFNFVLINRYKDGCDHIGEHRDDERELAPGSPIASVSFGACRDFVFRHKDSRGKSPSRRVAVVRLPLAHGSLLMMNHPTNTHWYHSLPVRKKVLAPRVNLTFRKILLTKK
Q96AE4, sequence (Q96AE4 whole entry, looked up): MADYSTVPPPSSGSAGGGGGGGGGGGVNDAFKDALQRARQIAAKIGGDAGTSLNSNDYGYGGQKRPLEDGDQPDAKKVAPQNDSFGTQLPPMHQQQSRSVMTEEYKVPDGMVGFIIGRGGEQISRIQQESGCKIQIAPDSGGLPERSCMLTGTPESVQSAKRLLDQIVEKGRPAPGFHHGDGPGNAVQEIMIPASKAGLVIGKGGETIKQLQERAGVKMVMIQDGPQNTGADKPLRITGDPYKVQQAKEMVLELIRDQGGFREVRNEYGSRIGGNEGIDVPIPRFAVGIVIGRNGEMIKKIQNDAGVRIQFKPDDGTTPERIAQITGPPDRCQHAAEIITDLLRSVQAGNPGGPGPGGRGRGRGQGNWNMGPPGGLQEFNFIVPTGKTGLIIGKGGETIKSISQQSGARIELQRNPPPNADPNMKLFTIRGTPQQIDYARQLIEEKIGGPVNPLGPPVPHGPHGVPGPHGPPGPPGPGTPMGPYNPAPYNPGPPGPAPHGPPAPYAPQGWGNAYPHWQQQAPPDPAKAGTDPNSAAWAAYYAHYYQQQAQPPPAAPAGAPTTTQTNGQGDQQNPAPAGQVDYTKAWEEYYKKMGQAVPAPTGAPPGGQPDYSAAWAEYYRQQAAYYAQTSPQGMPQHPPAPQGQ
Q9UNA4, sequence (Q9UNA4 whole entry, looked up): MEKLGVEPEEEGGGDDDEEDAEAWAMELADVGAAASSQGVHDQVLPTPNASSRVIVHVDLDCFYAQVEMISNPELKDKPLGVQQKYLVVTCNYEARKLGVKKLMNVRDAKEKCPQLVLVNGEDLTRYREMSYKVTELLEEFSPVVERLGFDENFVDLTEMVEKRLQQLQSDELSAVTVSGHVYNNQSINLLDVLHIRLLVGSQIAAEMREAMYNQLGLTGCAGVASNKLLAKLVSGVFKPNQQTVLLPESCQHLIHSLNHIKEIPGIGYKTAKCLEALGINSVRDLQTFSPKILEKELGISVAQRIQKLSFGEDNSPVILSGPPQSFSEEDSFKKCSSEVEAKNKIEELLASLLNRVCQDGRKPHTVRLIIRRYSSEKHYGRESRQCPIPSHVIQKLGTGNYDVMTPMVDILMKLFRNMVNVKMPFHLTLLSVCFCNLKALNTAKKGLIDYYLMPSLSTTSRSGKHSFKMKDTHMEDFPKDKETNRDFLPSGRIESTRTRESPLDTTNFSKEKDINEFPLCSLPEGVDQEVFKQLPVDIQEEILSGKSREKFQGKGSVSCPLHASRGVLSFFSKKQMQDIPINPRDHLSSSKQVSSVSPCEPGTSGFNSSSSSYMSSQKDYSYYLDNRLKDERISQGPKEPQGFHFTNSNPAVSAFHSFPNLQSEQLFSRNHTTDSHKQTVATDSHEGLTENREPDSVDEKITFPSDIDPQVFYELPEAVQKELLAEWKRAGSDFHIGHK
Q15054, sequence (Q15054 whole entry, looked up): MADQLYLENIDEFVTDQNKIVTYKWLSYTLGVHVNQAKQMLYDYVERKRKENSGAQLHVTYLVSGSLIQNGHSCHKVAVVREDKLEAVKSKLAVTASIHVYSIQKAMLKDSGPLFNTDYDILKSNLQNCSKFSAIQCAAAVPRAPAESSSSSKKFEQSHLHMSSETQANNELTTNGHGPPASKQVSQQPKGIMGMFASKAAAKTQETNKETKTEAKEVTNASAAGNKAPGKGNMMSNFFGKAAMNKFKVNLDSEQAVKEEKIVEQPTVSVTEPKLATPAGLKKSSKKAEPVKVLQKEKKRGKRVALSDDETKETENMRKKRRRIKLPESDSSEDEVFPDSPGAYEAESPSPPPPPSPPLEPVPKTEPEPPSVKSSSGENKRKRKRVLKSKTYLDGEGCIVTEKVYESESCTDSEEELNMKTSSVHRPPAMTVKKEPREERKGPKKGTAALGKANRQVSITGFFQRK
Q8TEB9, sequence (Q8TEB9 whole entry, looked up): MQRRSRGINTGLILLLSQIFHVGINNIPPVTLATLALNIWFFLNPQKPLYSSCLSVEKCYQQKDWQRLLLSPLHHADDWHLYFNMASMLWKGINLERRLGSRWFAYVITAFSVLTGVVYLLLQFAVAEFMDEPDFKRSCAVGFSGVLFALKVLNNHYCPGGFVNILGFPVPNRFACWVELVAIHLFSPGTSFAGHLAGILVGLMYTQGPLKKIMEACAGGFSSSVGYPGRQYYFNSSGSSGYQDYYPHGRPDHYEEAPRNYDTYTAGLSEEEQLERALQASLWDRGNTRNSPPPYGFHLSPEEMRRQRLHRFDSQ

Substance	Kd [1]	further results
P49137 (from UniProt P49137)	50 nM	
O75367 (from UniProt O75367)	63600 nM	
Q15004 (from UniProt Q15004)		Kd [2]: 1000 nM
Q9Y698 (from UniProt Q9Y698)	32500 nM	
O95630 (from UniProt O95630)	473 nM	
Q9H0W5 (from UniProt Q9H0W5)	180 nM	
P30279 (from UniProt P30279)	2500 nM	
P01137 (from UniProt P01137)	7.2 nM	
P46108 (from UniProt P46108)	10200 nM	
Q8TEB9 (from UniProt Q8TEB9)	66500 nM	
Q96ST2 (from UniProt Q96ST2)	4700 nM	
P01042 (from UniProt P01042)	110000 nM	
P10451 (from UniProt P10451)	0.43 nM	
Q92844 (from UniProt Q92844)	14000 nM	
P61081 (from UniProt P61081)	1800 nM	
Q8WUK0 (from UniProt Q8WUK0)	530 nM	
P06400 (from UniProt P06400)	3900 nM	

Substance	Kd [1]	further results
Q9UQ84 (from UniProt Q9UQ84)	16500 nM	
Q13137 (from UniProt Q13137)		Kd [3]: 1600 nM
Q52LA3 (from UniProt Q52LA3)	1400 nM	
Q9UNA4 (from UniProt Q9UNA4)	300 nM	
P17535 (from UniProt P17535)	73000 nM	
Q9H9L4 (from UniProt Q9H9L4)	8600 nM	
HA-RSK(WT)-BioID2 (wild-type human RSK2, ribosomal protein S6 kinase A3, fused to BioID2) (from UniProt P51812) KAKLGM-to-KSEPPY		response (normalized biotin/FLAG) [4]: 0.85; response (normalized biotin/FLAG) [5]: 1.1; response (normalized biotin/FLAG) [6]: 0.4; ratio to parent ([7]; marked *): 2.4 fold; response (normalized biotin/FLAG) ([7]; parent: est. 1.0, read off a plot): 0.43; ratio to parent ([8]; marked *): 2.3 fold; response (normalized biotin/FLAG) ([8]; parent: est. 0.85, read off a plot): 0.38; ratio to parent ([9]; marked *): 3.8 fold; response (normalized biotin/FLAG) ([9]; parent: est. 1.3, read off a plot): 0.45; ratio to parent ([10]; marked *): 2.4 fold; response (normalized biotin/FLAG) ([10]; parent: est. 1.4, read off a plot): 0.6
Q99816 (from UniProt Q99816)	1000 nM	
P14784 (from UniProt P14784)	750 nM	
Q6NS38 (from UniProt Q6NS38)	240 nM	
Q9NZM5 (from UniProt Q9NZM5)	23300 nM	
Q15054 (from UniProt Q15054)	1700 nM	
Q13309 (from UniProt Q13309)	3200 nM	
Q86VZ6 (from UniProt Q86VZ6)	8900 nM	
Q8NHG7 (from UniProt Q8NHG7)	5880 nM	
Q96AE4 (from UniProt Q96AE4)	6000 nM	
Q01094 (from UniProt Q01094)	1060 nM	
